Like-named read-outs stand apart in the source and are kept apart here.
Experiments:
[1] = biological target: T1, murine LRIG1.ECD.His recombinant protein (mouse, UniProt P70193 35-796); experiment: SPR
T1 sequence (looked up): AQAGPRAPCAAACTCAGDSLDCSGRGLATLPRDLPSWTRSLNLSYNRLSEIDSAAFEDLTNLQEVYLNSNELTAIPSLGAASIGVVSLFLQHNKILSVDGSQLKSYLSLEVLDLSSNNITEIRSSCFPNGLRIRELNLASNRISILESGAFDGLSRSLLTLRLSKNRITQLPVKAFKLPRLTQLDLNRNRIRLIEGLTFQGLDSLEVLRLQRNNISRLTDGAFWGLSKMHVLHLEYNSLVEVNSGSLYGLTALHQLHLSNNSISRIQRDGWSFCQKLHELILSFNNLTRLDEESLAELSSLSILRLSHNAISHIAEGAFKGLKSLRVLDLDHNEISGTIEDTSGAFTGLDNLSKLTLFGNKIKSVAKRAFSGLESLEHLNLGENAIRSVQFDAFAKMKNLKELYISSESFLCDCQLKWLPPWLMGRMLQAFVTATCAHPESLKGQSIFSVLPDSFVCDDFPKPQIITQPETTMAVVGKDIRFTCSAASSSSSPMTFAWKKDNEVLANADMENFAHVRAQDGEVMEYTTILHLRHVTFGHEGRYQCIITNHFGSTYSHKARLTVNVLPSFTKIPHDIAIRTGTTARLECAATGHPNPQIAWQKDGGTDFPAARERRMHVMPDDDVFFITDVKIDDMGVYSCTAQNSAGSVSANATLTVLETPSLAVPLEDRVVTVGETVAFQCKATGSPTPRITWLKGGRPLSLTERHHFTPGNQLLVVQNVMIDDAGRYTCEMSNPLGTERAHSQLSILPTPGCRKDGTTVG

[2] = biological target: T1, murine LRIG1.ECD.His recombinant protein; experiment: SPR; remark: listed apart in the source

Kd [1]: 1.2 nM | Kd [2]: 3.44 nM
B1: murine VISTA.Fc recombinant protein (VISTA.ECD) (Fc fusion, UniProt Q9D659 33-191, looked up)
chain: FKVTTPYSLYVCPEGQNATLTCRILGPVSKGHDVTIYKTWYLSSRGEVQMCKEHRPIRNFTLQHLQHHGSHLKANASHDQPQKHGLELASDHHGNFSITLRNVTPRDSGLYCCLVIELKNHHPEQRFYGSMELQVQAGKGSGSTCMASNEQDSDSITAA
